{"source": "patent US20230321183A1", "biological_target": "OTi TCR on OT-I mouse T cells", "test": "cell-based or functional assay"}
{"substance": "FITC-conjugated tetramer H2Kb-SIINFEKL (from UniProt P01901 22-305) (peptide-MHC)", "values": [{"measurement": "cytotoxicity of human primary CD8 anti-FITC CAR T cells on OTi cells", "value": "> 50", "unit": "%"}]}
